Measurements published in US20080044436A1, “Method for Screening and Compositions for Treating Cancers” (priority 2004, published 2008).

Target: T1, Sp1 (Homo sapiens, UniProt P08047)
T1 construct: made in house
Test: GST pull-down, TReP-132 and Sp1
Format: binding
Settings: GST pull-down with 35S-Sp1, vs GST alone
Procedure: FIG. 13D: GST-TReP-132 proteins were incubated with ^35-[S]-Sp1 and immobilized on a glutathione-Sepharose column. Specific interactions were analyzed by comparison with the results obtained by incubating GST alone with ^35-[S]-Sp1. Sp1 input: 1/10th of radiolabelled Sp1 level used in the incubations.
In order to evaluate the interaction of TReP-132, Sp1, ER and PR, the wt and mutant GST-TReP-132 fusion proteins were expressed, then immobilized on glutathione-Sepharose as described (Frangioni and Neel, 1993; Monte et al., 1998). The ^35S-[Sp1], ^35S-[ER] and ^35S-[PR-B] proteins were synthesized in vitro using a rabbit reticulocyte lysate and T7 RNA polymerase system as directed by the manufacturer (Promega Corporation, Madison, Wis.). Proteins which bound, then detached from the Sepharose after being heated to boiling in SDS buffer were then separated on a 10% SDS-PAGE gel. The gels were stained with Coomassie blue, dried and autoradiographed.

T1 sequence (P08047 whole entry): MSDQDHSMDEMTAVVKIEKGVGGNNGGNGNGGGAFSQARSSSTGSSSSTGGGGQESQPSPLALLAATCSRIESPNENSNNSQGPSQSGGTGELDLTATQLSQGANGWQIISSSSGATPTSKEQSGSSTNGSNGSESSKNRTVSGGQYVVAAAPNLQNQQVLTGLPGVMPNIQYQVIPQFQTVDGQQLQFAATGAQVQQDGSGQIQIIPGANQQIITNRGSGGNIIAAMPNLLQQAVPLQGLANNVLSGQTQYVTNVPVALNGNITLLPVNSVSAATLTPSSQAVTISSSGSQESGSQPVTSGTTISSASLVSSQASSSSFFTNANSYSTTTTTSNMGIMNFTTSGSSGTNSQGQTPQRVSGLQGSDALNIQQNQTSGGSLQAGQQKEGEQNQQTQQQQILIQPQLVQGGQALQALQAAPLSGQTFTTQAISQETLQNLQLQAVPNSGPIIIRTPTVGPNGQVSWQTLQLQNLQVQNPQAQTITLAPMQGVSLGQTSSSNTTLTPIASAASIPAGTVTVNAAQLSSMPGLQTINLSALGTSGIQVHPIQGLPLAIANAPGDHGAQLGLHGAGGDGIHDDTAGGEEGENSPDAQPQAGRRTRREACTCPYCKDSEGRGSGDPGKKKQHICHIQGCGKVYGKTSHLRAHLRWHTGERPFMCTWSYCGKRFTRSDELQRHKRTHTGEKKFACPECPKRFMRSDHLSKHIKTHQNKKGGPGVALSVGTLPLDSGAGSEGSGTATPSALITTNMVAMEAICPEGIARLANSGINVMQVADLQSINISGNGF

B1: GST-TReP-132: in-frame fusion of the TReP-132 coding region downstream of GST in pGEX-2TK (protein)
chain: MGDQQLYKTNHVAHGSENLFYQQPPLGVHSGLNHNYGNAVTGGGMDAPQASPISPHFPQDTRDGLGLPVGSKNLGQMDTSRQGGWGSHAGPGNHVQLRGNLANSNMMWGAPAQAEPTDGYQYTYSQASEIRTQKLTSGVLHKLDSFTQVFANQNLRIQVNNMAQVLHTQSAVMDGAPDSALRQLLSQKPMEPPAPAIPSRYQQVPQQPHPGFTGGLSKPALQVGQHPTQGHLYYDYQQPLAQVPVQGGQPLQAPQMLSQHMQQMQQHQYYPPQQQQQAGQQRISMQEIQTQPQQIRPSQPQPPPQQQQPQQLQLQQRQGSMQIPQYYQPQPMMQHLQEQQQQQMHLQPPSYHRDPHQYTPEQAHTVQLIPLGSMSQYYYQEPQQPYSHPLYQQSHLSQHQQREDSQLKTYSSDRQAQAMLSSHGDLGPPDTGMGDPASSDLTRVSSTLPHRPLLSPSGIHLNNMGPQHQQLSPSAMWPQMHLPDGRAQPGSPESSGQPKGAFGEQFDAKNKLTCSICLKEFKNLPALNGHMRSHGGMRASPNLKQEEGEKVLPPQPQPPLPPPPPPPPPPQLPPEAESLTPMVMPVSVPVKLLPPKPSSQGFTNSTVAAPSARDKPASSMSDDEMPVLEIPRKHQPSVPKAEEPLKTVQEKKKFRHRPEPLFIPPPPSYNPNPAASYSGATLYQSQLRSPRVLGDHLLLDPTHELPPYTPPPMLSPVRQGSGLFSNVLISGHGPGAHPQLPLTPLTPTPRVLLCRSNSIDGSNVTVTPGPGEQTVDVEPRINIGLRFQAEIPELQDISALAQDTHKATLVWKPWPELENHDLQQRVENLLNLCCSSALPGGGTNSEFALHSLFEAKGDVMVALEMLLLRKPVRLKCHPLANYHYAGSDKWTSLERKLFNKALATYSKDFIFVQKMVKSKTVAQCVEYYYTWKKIMRLGRKHRTRLAEIIDDCVTSEEEEELEEEEEEDPEEDRKSTKEEESEVPKSPEPPPVPVLAPTEGPPLQALGQPSGSFICEMPNCGAVFSSRQALNGHARIHGGTNQVTKARGAIPSGKQKPGGTQSGYCSVKSSPSHSTTSGETDPTTIFPCKECGKVFFKIKSRNAHMKTHRQQEEQQRQKAQKAAFAAEMAATIERTTGPVGAPGLLPLDQLSLIKPIKDVDILDDDVVQQLGGVMEEAEVVDTDLLLDDQDSVLLQGDAEL
modifications: left off: a dimerising Fc or GST; large carriers; small tags and cut ends
notes: in-frame fusion of the TReP-132 coding region downstream of GST in pGEX-2TK
interaction with Sp1: protein/protein itneraction was observed
